Literature values, collected in publication doi:10.1101/2021.01.30.427993.

Tested on: Glu165
Settings: not stated ('in the active site')

Triosephosphate isomerase (TIM)
pKa: 3.9
